Reference: US12006513B2, “Methods for the long-term expansion of granulocyte-macrophage progenitors and applications thereof” (University of Southern California, priority 2018, dated 2024)

What was measured:
[1] = system: bone marrow cells isolated from adult C57BL/6 mice; experiment: Small molecule library screens on bone marrow cells in serum free N2B27 medium; format: cell-based, mouse; details: second screening, together with GDC0879
mouse GMP = experiment: Granulocyte differentiation of ex vivo expanded GMPs; format: cell-based; details: RPMI 1640+10% FBS, 20 ng/mL GCSF, 72 h
Experimental: Long-term ex vivo expanded GMPs can differentiate into functional and mature granulocytes. Granulocyte colony-stimulating factor (G-CSF) is a known hematopoietic growth factor that regulates neutrophils production in the bone marrow. G-CSF was used to induce mouse GMP differentiation towards the neutrophil lineage. After culturing for 3 weeks in E7^+SCF/GDC/CHIR conditions, GMPs were re-plated in RPMI 1640+10% FBS medium and stimulated with 20 ng/mL of GCSF. Seventy-two hours after stimulation with GCSF, GMPs differentiated into cells that morphologically resembled granulocytes (e.g., see FIG. 3F). To further verify the identity of these cells, the cells were harvested and stained with Gr1 and CD115 antibodies and analyzed by flow cytometer. Granulocytes are Gr1^+ and CD115^−.

ex vivo expanded GMPs = experiment: Macrophage differentiation of ex vivo expanded GMPs; format: cell-based, mouse; details: RPMI 1640+10% FBS+20 ng/mL MCSF, 7 days
Experimental: FIG. 3A-I presents results of macrophages differentiation from GMPs. […] P7 GMPs were cultured in RPMI 1640+10% FBS+20 ng/mL MCSF for 7 days. Mature macrophages were re-plated, fixed and stained for CD11b and F4/80. (B) Provides the results of an in vitro functional test of the differentiated macrophages. 1×10^5 GMPs (P7) or 1×10^6 whole BM cells were seeded into 1 well of 6-well plate in RPMI 1640+10% FBS+20 ng/mL MCSF. 7 days later, mature bone marrow-derived macrophages (BMM) and GMP-derived macrophages (GMPM) were trypsinized, counted and reseeded into 48-well plate at 1×10^5 cells per well in RPMI 1640+10% FBS. After overnight, cells were stimulated with 500 ng/mL LPS for 6 or 24 h. The inflammatory cytokines in the supernatant were measured by ELISA. (C) Provides images of another in vitro functional test of the differentiated macrophages. Green: E. coli-GFP. Red: tdTomato^+ macrophages. Top image, GFP labeled E. coli were co-cultured with tdTomato^+ GMPs-derived macrophages. Consecutive pictures were taken each 30′ under Zeiss LSM-780 confocal microscope for 1 h. […] (E), cells were harvested and FITC positive cells were analyzed by using BD Arial flow cytometry. […]
Long-term ex vivo expanded GMPs can differentiate into functional and mature macrophages. […] After 6 or 24 h, the supernatant was harvested and the concentrations of inflammatory cytokines TNFα, IL6 and IL10 by ELISA were measured.

For O=C(NCCCn1ccnc1)c1cc(-c2ccco2)on1 [SKL2001], the “expansion of the uniform round-shaped cells” value [1] was “acted synergistically with GDC0879 to promote the expansion”.

B1: GCSF: granulocyte colony-stimulating factor, used at 20 ng/mL for granulocyte differentiation (protein, UniProt P09919 31-207, looked up)
Granulocyte …: TPLGPASSLPQSFLLKCLEQVRKIQGDGAALQEKLVSECATYKLCHPEELVLLGHSLGIPWAPLSSCPSQALQLAGCLSQLHSGLFLYQGLLQALEGISPELGPTLDTLQLDVADFATTIWQQMEELGMAPALQPTQGAMPAFASAFQRRAGGVLVASHLQSFLEVSYRVLRHLAQP
For B1, the “cells derived from GMPs that were Gr1+ CD115−” value (mouse GMP) was “more than 80%”.

B2: MCSF: macrophage colony-stimulating factor, used at 20 ng/mL for macrophage differentiation (protein, UniProt P09603 33-554, looked up)
Macrophage colony-stimulating …: EEVSEYCSHMIGSGHLQSLQRLIDSQMETSCQITFEFVDQEQLKDPVCYLKKAFLLVQDIMEDTMRFRDNTPNAIAIVQLQELSLRLKSCFTKDYEEHDKACVRTFYETPLQLLEKVKNVFNETKNLLDKDWNIFSKNCNNSFAECSSQDVVTKPDCNCLYPKAIPSSDPASVSPHQPLAPSMAPVAGLTWEDSEGTEGSSLLPGEQPLHTVDPGSAKQRPPRSTCQSFEPPETPVVKDSTIGGSPQPRPSVGAFNPGMEDILDSAMGTNWVPEEASGEASEIPVPQGTELSPSRPGGGSMQTEPARPSNFLSASSPLPASAKGQQPADVTGTALPRVGPVRPTGQDWNHTPQKTDHPSALLRDPPEPGSPRISSLRPQGLSNPSTLSAQPQLSRSHSSGSVLPLGELEGRRSTRDRRSPAEPEGGPASEGAARPLPRFNSVPLTDTGHERQSEGSFSPQLQESVFHLLVPSVILVLLAVGGLLFYRWRRRSHQEPQRADSPLEQPEGSPLTQDDRQVELPV
With B2 the “cells expressing macrophage markers CD11b and F4/80” value (ex vivo expanded GMPs) was “almost all the cells expressed both CD11b and F4/80”.
